US20190055304A1 (published 2019)

Columns and labels:
[1] = target: T1, DNABII protein from Pseudomonas aeruginosa (IHF-alpha by the legend of FIGS. 7A-7C) (Pseudomonas aeruginosa, UniProt Q51472 2-100); test: ELISA at pH 7.5; printed as 'Affinity (nM)'
T1 construct: mature; also called Pa; P. aeruginosa; not shown: poly-histidine tag
T1 sequence: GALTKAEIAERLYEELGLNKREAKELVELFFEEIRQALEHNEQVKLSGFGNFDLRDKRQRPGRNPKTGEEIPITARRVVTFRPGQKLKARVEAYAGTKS

[2] = target: T2, full length DNABII protein, HU-beta, from Staphylococcus aureus (Staphylococcus aureus, UniProt Q5HFV0 1-90); test: ELISA at pH 7.5; printed as 'Affinity (nM)'
T2 construct: mature; also called HU Sa; HU-beta of S. aureus; not shown: poly-histidine tag
T2 sequence: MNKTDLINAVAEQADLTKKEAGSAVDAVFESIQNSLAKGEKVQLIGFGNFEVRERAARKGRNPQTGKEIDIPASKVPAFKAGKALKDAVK

[3] = target: T3, DNABII protein from Klebsiella pneumoniae (IHF; IHF-alpha by the legend of FIGS. 7A-7C) (Klebsiella pneumoniae, UniProt A6TAI1 1-99); test: ELISA at pH 7.5; printed as 'Affinity (nM)'
T3 construct: also called Kp; K. pneumoniae
T3 sequence: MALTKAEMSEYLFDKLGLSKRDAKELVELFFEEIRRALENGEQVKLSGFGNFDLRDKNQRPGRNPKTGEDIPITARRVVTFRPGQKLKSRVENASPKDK

[4] = target: T4, DNABII protein from Acinetobacter baumannii (Acinetobacter baumannii); test: adsorption ELISA, antigen coated; printed as 'Affinity (pM)', half-maximal binding concentration
T4 construct: mature
T4 sequence (B7I698 whole entry): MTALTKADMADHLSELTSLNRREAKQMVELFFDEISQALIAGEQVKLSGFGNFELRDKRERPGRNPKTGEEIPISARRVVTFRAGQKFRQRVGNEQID

[5] = target: T5, DNABII protein from Haemophilus influenzae (IHF) (Haemophilus influenzae); test: as above
T5 construct: mature; also called H. influenzae; IHF from Haemophilus influenzae
T5 sequence (P43723 whole entry): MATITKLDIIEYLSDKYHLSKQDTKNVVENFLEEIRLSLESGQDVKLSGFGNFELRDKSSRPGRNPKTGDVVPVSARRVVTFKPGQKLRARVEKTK

[6] = target: T1, DNABII protein from Pseudomonas …; test: ELISA at pH 2.5; printed as 'Affinity (nM)'
[7] = target: T2, full length DNABII protein, HU-beta, …; test: ELISA at pH 2.5; printed as 'Affinity (nM)'
[8] = target: T3, DNABII protein from Klebsiella …; test: ELISA at pH 2.5; printed as 'Affinity (nM)'
[9] = target: T1, DNABII protein from Pseudomonas …; test: ELISA at pH 4.5; printed as 'Affinity (nM)'
[10] = target: T2, full length DNABII protein, HU-beta, …; test: ELISA at pH 4.5; printed as 'Affinity (nM)'
[11] = target: T3, DNABII protein from Klebsiella …; test: ELISA at pH 4.5; printed as 'Affinity (nM)'
[12] = target: T1, DNABII protein from Pseudomonas …; test: ELISA at pH 3.5; printed as 'Affinity (nM)'
[13] = target: T2, full length DNABII protein, HU-beta, …; test: ELISA at pH 3.5; printed as 'Affinity (nM)'
[14] = target: T3, DNABII protein from Klebsiella …; test: ELISA at pH 3.5; printed as 'Affinity (nM)'
[15] = target: T1, DNABII protein from Pseudomonas …; test: ELISA at pH 6.5; printed as 'Affinity (nM)'
[16] = target: T2, full length DNABII protein, HU-beta, …; test: ELISA at pH 6.5; printed as 'Affinity (nM)'
[17] = target: T3, DNABII protein from Klebsiella …; test: ELISA at pH 6.5; printed as 'Affinity (nM)'
[18] = target: T1, DNABII protein from Pseudomonas …; test: ELISA at pH 5.5; printed as 'Affinity (nM)'
[19] = target: T2, full length DNABII protein, HU-beta, …; test: ELISA at pH 5.5; printed as 'Affinity (nM)'
[20] = target: T3, DNABII protein from Klebsiella …; test: ELISA at pH 5.5; printed as 'Affinity (nM)'
[21] = target: T2, full length DNABII protein, HU-beta, …; test: adsorption ELISA, antigen coated; given as 'affinity', estimated as half-maximal binding concentration
[22] = target: peptide 20, SGSG … (Staphylococcus aureus); test: ELISA, biotinylated peptides on streptavidin coated plates
[23] = target: peptide 13, SGSG … (Staphylococcus aureus); test: as above
[24] = target: peptide 12, SGSG … (Staphylococcus aureus); test: as above
[25] = target: peptide 6, SGSG … (Staphylococcus aureus); test: as above
[26] = target: peptide 19, SGSG … (Staphylococcus aureus); test: as above
[27] = target: peptide 26, […] (Staphylococcus aureus); test: as above
[28] = target: peptide 14, SGSG … (Staphylococcus aureus); test: as above
[29] = target: peptide 18, SGSG … (Staphylococcus aureus); test: as above

B1: TRL1068 (antibody, V domains shown)
VH: QVQLVESGPGLVKPSETLSLTCRVSGDSNRPSYWSWIRQAPGKAMEWIGYVYDSGVTIYNPSLKGRVTISLDTSKTRFSLKLTSVIAADTAVYYCARERFDRTSYKSWWGQGTQVTVSS
VL: DIVLTQAPGTLSLSPGDRATLSCRASQRLGGTSLAWYQHRSGQAPRLILYGTSNRATDTPDRFSGSGSGTDFVLTISSLEPEDFAVYYCQQYGSPPYTFGQGTTLDIK
EC50 [1]: 0.005 nM
EC50 [2]: 0.01 nM
EC50 [3]: 0.006 nM
EC50 [4]: 0.01 nM
EC50 [5]: 5 nM
EC50 [6]: 2.1 nM
EC50 [7]: 3.5 nM
EC50 [8]: 2.6 nM
EC50 [9]: 0.009 nM
EC50 [10]: 0.012 nM
EC50 [11]: 0.05 nM
EC50 [12]: 0.26 nM
EC50 [13]: 0.36 nM
EC50 [14]: 3 nM
EC50 [15]: 0.005 nM
EC50 [16]: 0.012 nM
EC50 [17]: 0.006 nM
EC50 [18]: 0.006 nM
EC50 [19]: 0.012 nM
EC50 [20]: 0.009 nM

B2: TRL1330 (antibody, V domains shown)
VH: QVQLVESGTEVKNPGASVKVSCTASGYKFDEYGVSWVRQSPGQGLEWMGWISVYNGKTNYSQNFQGRLTLTTETSTDTAYMELTSLRPDDTAVYYCATDKNWFDPWGPGTLVTVSS
VL: DIVLTQSPSASGSPGQSITISCTGTNTDYNYVSWYQHHPGKAPKVIIYDVKKRPSGVPSRFSGSRSGNTATLTVSGLQTEDEADYYCVSYADNNHYVFGSGTKVTVL
EC50 [4]: 0.017 nM
EC50 [5]: 0.026 nM

B3: TRL1337 (antibody, V domains shown)
VH: QVQLLESGPGLVKPSETPSLTCTVSGGSIRSYYWSWIRQPPGKGLEWIGYIYYSGSTNYNPSLKSRVTISVDMSKNQFSLKLSSVTAADTAMYYCARVYGGSGSYDFDYWGQGTLVTVSS
VL: DIVLTQSPSASGSPGQSVTISCTGTSSDVGGYNYVSWYQQLPGKAPKLMIYEVTKRPSGVPDRFSGSKSGNTASLTVSGLQAEDEADYYCSSFAGSNNHVVFGGGTKLTVL
EC50 [21]: 6 nM

B4: TRL1338 (antibody, V domains shown)
VH: QLTLRESGPTLVKPTQTLTLTCTFSGFSLSTNGVGVGWIRQPPGKALEWLAIIYWDDDKRYSPSLKSRLTITKDTSKNQVVLTLTNMDPVDTGTYYCAHILGASNYWTGYLRYYFDYWGQGTLVTVST
VL: DIEMTQSPSVSVSPGQTARITCSGEPLAKQYAYWYQQKSGQAPVVVIYKDTERPSGIPERFSGSSSGTTVTLTISGVQAEDEADYHCESGDSSGTYPVFGGGTKLTVL
EC50 [21]: 42 nM

B5: TRL1361 (antibody, V domains shown)
VH: QVQLVESGGGLAQPGGSLRLSCAASGFIFNTYAMGWVRQAPGKGLEWVSTVSAPGAGTYYTDSVKGRFIISRDNSKNILYLQMNRLRVEDTAVYYCARDQGGPAVAGARIFDYWGQGALVTVSS
VL: DIVLTQSPLSLSVTPGQPASISCKSSQSLLRSDGKTYLCWYLQKPGQPPQLLIYEVSNRVSGVPDRFSGSGSGTDFTLKISRVEAEDVGVYYCMQSIQLRTFGQGTKVEIKR
EC50 [21]: 6.6 nM

B6: TRL1335 (antibody, V domains shown)
VH: QVQLVESGAEVKKPGESLKISCKGSGYNFTSYWIGWVRQMPGKGLEWMGVIYPDDSDTRYSPSFKGQVTISADKSISTAFLQWSSLKASDTAVYHCARPPDSWGQGTLVTVSS
VL: DIVMTQSPATLSVSPGERATLSCRASQSVSSNLAWYQQKPGLAPRLLIVGASNRATGIPARFSGSGSGTEFTLTISSLQSEDFAFYYCQQYNNWPFTFGPGTKVDVKR
binding result [22]: no binding
binding result [23]: no binding
binding result [24]: no binding
binding result [25]: no binding
binding result [26]: no binding
binding result [27]: no binding
binding result [28]: no binding
binding result [29]: no binding
